Tests used:
[1] = biological target: 1G4 TCR carrying βA291 (TCRαβ with HA-tagged β Y291A); assay: co-IP
[2] = biological target: 1G4 TCR, wild type (TCRαβ with HA-tagged β); assay: co-IP
[3] = biological target: QM-α TCR (1G4 variant with mutations in αCDR2, βCDR2 and βCDR3; TCRαβ with HA-tagged β); assay: pull-down

“CD3γ, endogenous in J76 Jurkat cells (from UniProt P09693 23-182) (natural protein)” was tested, and the reduction of recovery (γ/βT) against 1G4-WT [1] was 40%.
In the case of “CD3ε, endogenous in J76 Jurkat cells (from UniProt P07766 23-207) (natural protein)”, the ε/βT ratio against 1G4-WT (ratio, 1G4-WT = 1) [1] is reported as 0.5.
In the case of “CD3ζ carrying ζA41 (I41A), expressed in J76-1G4WT-ζKO (from UniProt P20963-1 22-164) (natural protein)”, the ζ/β2 ratio against ζWT (ratio, ζWT = 1) [2] is reported as 0.25.
“CD3δ, endogenous in J76 Jurkat cells (from UniProt P04234 22-171) (natural protein)” gave a reduction of recovery (δ/βT) against 1G4-WT [1] of 10%.
“CD3ζ carrying ζA38 (I38A), expressed in J76-1G4WT-ζKO (from UniProt P20963-1 22-164) (natural protein)” gave a ζ/β2 ratio against ζWT (ratio, ζWT = 1) [2] of 0.05.
For “CD3ζ (ζζ dimer), endogenous in J76 Jurkat cells (from UniProt P20963-1 22-164) (natural protein)”, the reduction of ζ/β2 ratio, (9V-A2)4-His-bound against unliganded QM-α [3] was 40% and the ζ/β2 ratio against 1G4-WT (ratio, 1G4-WT = 1) [1] was 0.2.
